Entries after “also recorded” stand apart in the source; their conditions may differ.
B1: Gr-CLE-1: G. rostochiensis CLE gene, cDNA SEQ ID NO: 1, encoding a 204 amino acid secreted protein with four CLE motifs (nucleic acid, listed as Globodera rostochiensis)
DNA: TATTAATATTGACTAATTTTTTTTTACAAACATATTAATATTGACTAAAAAAATTGATTTTAATAACGACTATAGATATTACTTATGGAGCAACAAAAATCGTCATATTTCCCATCAAATTCAAATAAAACAATCTCTCCAATAAAGTAAATATGGCCAAGAACGCAATGCTTTGCCTGCTGATTTTGAGCGTTGTTCTTGCTCTCGCATTTGCTACAAATGAAAAGGATGATAAAGAAGCGGGGAACCTTTCGACCGGCATTTTTGGAAAGGCCGGAAGATTTGTGACCGTGGCACTTGCGATGTCGTCTCGTCTGGGAGGGGCTGGCGCATCCCAAGGAGGTGGAGCTGTACATGGAGAAAGCTTGAAATCCAATCAATTGCAAAACGCCTATCGGATGGCGCTTCCTCCTCCAATGCAAATAAAAAGTGCCGAAATTGACGGATGGAAACCGTCTCCTGATGAATATCTTAAAAAATTTGCTCAAGAATTTCGCCGAAACACCGGTATGAAACCCCAGTCGTATAATGAAGAGAAGCGTGTAACGCCGGGAGGGCCCGACCCACTACATAACCGTGAAAAAATTCTGGAAGAACAGAAGCGTGTAACGCCGGGAGGGCCTGACCCACTACATAACCGTGAAAAAACTCTGGAAGAACAGAAGCGTGTAACGCCGGGAGGGCCTGACCCACTACATAACCGTGAAAAAACTCTGGAAGAACAGAAGCGTGTAACGCCGGGAGTGCCCGACCGACAACATCGCTGAGGCAATACAAAAAGAGTGAAAGAAAATCGACGGATGTCTTTAGTAATTTCAATTCGTTCCTATCTTTCTCGTTCTGAAGACCAAATATCGATGATGTTAATGTTATGTTCGGAAAACAATTTCTGATATGCGCACACTTGGCA
B2: Gr-CLE-4-B: G. rostochiensis CLE gene of class Gr-CLE-4, cDNA SEQ ID NO: 4 (nucleic acid, listed as Globodera rostochiensis)
DNA: ATCATAATTTCCAAAATCCCAATAAAAGCTTCCTCAATAAAGTAAATATGGCCACGAACACAATGCTTTGCCTGTTAATTTTGAGCGTTGTTCTCGCTCTCGCATTTGCTACGAATAAAAAGGGTGATGAAGAACCGGAGAACCATTCGACCGGCATTTTTGGAAAGGTCGGACGAGTTGTGACCGTGGCACTTGCGATGTCGTCTCGTCTGGGAGGGGCTGACGCAACCCGAGGAGGTGGAGCTGTATATGGAGGAAACTTGAAATCCAATCTATTGCCAAACAACAATTGGATGGCGCCACCTCCTCCAATGGCAATGAGAAGTGCCAAAGTCTATGATTCGAAACATTCTCCTGCTGAATATCTTAAAAAATTTGCTCAAGACTTTCGCCGAAAAACCGGCATGCACTCCCAGCGGCATCACGAAGAAACAACACTGGAACAGGAGAAGCGTGTAGCGGGAGCTGGTCCCGACCCAATACATCACCAAGATACAACACTGGAACAGGAGAAGCGTGCAGTCCCAGCTGGGCCCGACCCAAAACATCACGAAGAAACAACACTGGAACAGGAGAAGCGTGCAGTCCCAGCTGGGCCCGACCCAAAACATCACGAAGAAACAACACTGGAACAGGAGAAGCGTGCAGTCCCAGCTGGGCCCGACCCAAAACATCACGAAGAAACAACATTTGAACAGGAGAAGCGTGGTGCGCCAGCTGGGCCCGACCCAATACATCACTGATGCTCTTATTCACAATGCTAAAATATCTGTAGACTATAGATAAATTGCTAGCAACAGATAAATGCCTGATCATAATGCTATGGCTAAGGTATCCGTATTCCGAACTAGCAATATAAGCGCATGCGTAGCTCTATCCATTTAATTTCACAATCTAAAGATTAAAATCTGCAGATATCTAGCTGTAGCTGGGCTATCTGCGGATGGAAAAATCGGCATTCTTAATATAATTTTTAATTGCTTAATAAACTTCAATAAAA
B3: Gr-CLE-4-C: G. rostochiensis CLE gene of class Gr-CLE-4 with a single CLE motif, cDNA SEQ ID NO: 5 (nucleic acid, listed as Globodera rostochiensis)
DNA: ATCATAATTTCCAAAATCCCAATAAAAGCTTCCTCAATAAAGTAAATATGGCCACGAACACAATGCTTTGCCTGTTTGTTATAAGCGTTGTTCTCGCTCTCGCATTTGCTACGAATAAAAAGGGTGATGAAGAACCGGAGAACCATTCGACCGGCATTTTTGGAAAGGTCGGACGAGTTGTGACCGTGGCACTTGCGATGTCGTCTCGTCTGGGAGGGGCTGACGCAACCCGAGGAGGTGGAGCTGTATATGGAGGAAACTTGAAATCCAATCAATTGCCAAACAACAATTGGATGGCGCCACCTCCTCCAATGGCAATAAGAAGTGCCAAAGTCTATGATTCGAAACATTCTCCTGCTGAATATCTTAAAAAATTTGCTCAAGACTTTCGCCGAAAAACCGGCATGCACTCCCAGCGGCATCACGAAGAAACAACACTGGAACAGGAGAAGCGTGTAGCGGGAGCTGGTCCCGACCCAATACATCACTGATGCTCTTATTCACAATGCTAAAATATCTGTAGACTATAGATAAATTGCTAGCAACAG

Assays:
[1] = tested on: Arabidopsis clv3-2 mutant plants; experiment: complementation of clv3-2 mutant by Gr-CLE genes under CLV3 promoter; assay type: in vivo; details: gene under control of CLV3 promoter in clv3-2
From the text: Gr-CLE proteins can completely or partially replace CLV3 activity within meristems. For the complementation study, Gr-CLE genes were subcloned into pBU14 under the control of the CLV3 promoter (Brand et al. 2002. Plant Physiol. 129:565-575). To generate the PCLV3:Gr-CLE-1 construct, primer pair of CLE1-spF and CLE1-TGAxbaR was used. To generate PCLV3:Gr-CLE-4-B and PCLV3:Gr-CLE-4-C constructs, primer pair of CLE4B1-spF and 4B1-TGAxbaR was used. Each amplified PCR product was cloned into pBU14 at BamHI and XbaI sites. Arabidopsis clv3-2 mutant plants were transformed with A. tumefaciens GV3101 harboring each of the above constructs.
All transformants were selected on ½×MS medium containing 50 μg/mL of kanamycin (Sigma-Aldrich) (for the pMD1 vector) or 30 μg/mL of glufosinate ammonium (Fisher, Pittsburgh, Pa., U.S.A.) (for the pBU14 vector) and transgenic Arabidopsis plants were then cultivated at 24° C. for 16 h of light and 8 h of dark in a growth room. For measuring the root growth rate, transgenic plants expressing individual Gr-CLE genes or the empty vector were first selected on kanamycin containing medium for five days, then transferred to ½×MS plates and cultured vertically at 24° C. for 16 h of light and 8 h of dark in a growth chamber (Percival, Perry, Iowa, U.S.A.).
Gr-CLE-1, Gr-CLE-4-B, and Gr-CLE-4-C were the most representative Gr-CLE genes identified. To determine if these genes could replace CLV3 activity in the shoot and floral meristems, the full-length sequences of these three genes were cloned under the control of the CLV3 promoter and introduced into Arabidopsis clv3-2 mutant plants. clv mutants have enlarged shoot and floral meristems that lead to shoot fasciation and formation of extra floral organs including an increase in carpel number (Clark et al. 1993, 1995; Kayes and Clark 1998). For example, flowers of a clv3-2 mutant usually have six to seven carpels in the fourth whorl (Clark et al. 1995), whereas wild-type flowers have only two carpels in the fourth whole. Carpel number is a sensitive measurement for meristem size (Clark et al. 1993; Ni and Clark 2006). Multiple independent transgenic lines for each transgene were obtained and analyzed (Table 2).

potato hairy roots = experiment: overexpression of Gr-CLE genes in potato hairy roots; assay type: in vivo; details: measured at 4, 6, 8 and 10 days after dissecting; compared with vector control
From the text: To examine root meristems, primary root tips were excised from peptide treated Arabidopsis seedlings or from transgenic potato hairy roots and immediately mounted in water onto a glass slide. Roots were examined under an Olympus BX-50 microscope equipped with Nomarski optics and images were captured using a QImaging Retiga EXi digital CCD camera (QImaging, Surrey, BC, Canada). The root apical meristem (RAM) regions of individual primary roots that covered the distance from the position around the quiescent center to the position where elongated root cells immediately follow cytoplasm-dense meristematic cells were measured microscopically. The collected data were analyzed using the MetaMorph imaging analysis software (Universal Imaging Corporation, Downingtown, Pa., U.S.A.)
A. rhizogenes strain 15834 was transformed with individual transgene constructs of interest and used for the generation of potato hairy roots as described previously (Wang et al. 2007. Mol. Plant Pathol. 8:423-436) with some modifications. Potato stem pieces from tissue cultures were incubated with the transformed A. rhizogenes cell suspension for 10 mins, then transferred onto the callus induction medium containing 1×MS salts (Sigma-Aldrich), 26.7 μM Glycine, 4 μM Nicotinic Acid, 2.4 μM Pyridoxine HCL (Sigma-Aldrich), 1.2 μM Thiamine HCL (Sigma-Aldrich), 0.5 μM Folic Acid, 0.2 μM d-biotin (Sigma-Aldrich), 0.01% Myo-inositol (Acros, Morris Plains, N.J., U.S.A.), 3% sucrose, 0.001% 6-BAP (Sigma-Aldrich), 0.002% NAA (Sigma-Aldrich), and 1% agar and cultivated for four days at 24° C. without light. The infected stem pieces were then cultured on the propagation medium containing 1×MS salts, 1.2 mM NaH2PO4, 0.01% Myo-inositol, 0.1% Thiamine HCl, 3% sucrose, 1% agar, 50 μg/mL of kanamycin, and 238 μg/mL of timentin (GlaxoSmithKline). Timentin was used to inhibit the growth of A. rhizogenes 15834 and kanamycin was added to select for transformed roots. Approximately 12-15 days after root emergence, 1 cm-long root tips were dissected and cultured on vertical plates containing the propagation medium with 119 μg/mL of timentin and the root growth rate was measured at different time points.

Row | Molecule | average number of carpels in flowers and siliques [1] | rescue of clv3-2 meristem defects [1] | length of primary roots of transgenic potato hairy root lines (potato hairy roots)
1 | B1 | three to four | partial rescue | short root phenotype; also recorded: much shorter
2 | B2 | two | nearly complete rescue | short root phenotype
3 | B3 | three to four | partial rescue | short root phenotype
